Test results taken from patent publication US20240093191A1, “COMPOSITIONS AND METHODS FOR TREATING DISEASE ASSOCIATED WITH DUX4 OVEREXPRESSION” (RESEARCH INSTITUTE AT NATIONWIDE CHILDREN'S HOSPITAL, priority 2021, published 2024).

How the values were obtained:
Type in all cases: cell-based, human
CDC6 = assay: QPCR of CDC6 in transfected HEK293 cells; settings: 48 h, relative to U6.milacZ
Experimental: The expression of SMAD1, SMAD5 and CDC6 was measured by QPCR in HEK293 cells using TaqMan probes specific to each investigated gene. To do that, U6.milacZ (negative control), H1.mir-675, U6.mir-675-3p or U6.mir-675-5p expressing constructs were transfected into HEK293 cells, and total RNA was extracted 48h after transfection. As a result, U6.mir-675-3p reduced SMAD1 levels by an average of 32±6% (P<0.044, ANOVA, N=3) and SMAD5 levels by an average of 35±6% (P<0.0013, ANOVA, N=3). On the other hand, H1.mir-675 and U6.mir-675-5p repressed CDC6 levels by an average of 38±4% (P<0.0034, ANOVA, N=3) and 36±7% (P<0.0048, ANOVA, N=3), respectively. Results were reported as relative gene expression (ΔΔCq)±SEM of three replicates (N=3) relative to gene expression in cells transfected with U6.milacZ, with each QPCR assay performed in triplicate. All results were quantified using as reference gene the house keeping gene RPL13A.
Along with a previous study showing the beneficial effect of mir-675 on regeneration and differentiation of injured mouse skeletal muscles [Dey et al., Genes Dev. […] QPCR was used to measure the expression of SMAD1, SMAD5 and CDC6 in HEK293 cells using TaqMan probes specific to each investigated gene. […] All results were quantified using as reference gene the house keeping gene RPL13A. […]

pri-mir-675 = assay: TaqMan QRT-PCR of pri-mir-675 from transfected constructs in HEK293 cells; settings: 24 h post-transfection
Text: (§1) RNA Extraction. RNA from HEK293 cells was extracted for Northern blot assay and QPCR. The miRVANA miRNA isolation kit (ThermoFisher Scientific) was used according to manufacturer's directions to extract total RNA encompassing small RNAs, such as miRNAs. To extract RNA from C57BL/6 skeletal muscles, cryopreserved muscles were crushed under suboptimal temperatures using liquid nitrogen and using mortar and pestle. Crushed muscles were then lysed using […] of miRVANA miRNA isolation kit lysis buffer, a TissueLyser and 1.0 mm zirconia beads (Biospec). Muscle was homogenized at 30 Hz for 30 sec with 10 sec rest. This was repeated 3 times.
(§2) TaqMan Gene Expression Assay. QRT-PCR was carried out to quantify the expression of pri-mir-675, mir-675-5p and mi405 using TaqMan probes (ThermoFisher Scientific). Experiments were started by eliminating genomic DNA from the RNA preparations, and then cDNA was generated using the High-Capacity cDNA Reverse Transcription Kit (Applied Biosystems) following manufacturer's instructions. Within the same cDNA reaction, 1×RT random hexamer primers were used to generate the cDNA for RPL13A, used as a reference gene, and for pri-mir-675. To generate the cDNA for mir-675, the RT mir-675 reverse primer provided by ThermoFisher Scientific was used. For mi405, the mi405 qPCR protocol was done as it was previously described [Wallace et al., Mol. Ther. Methods Clin. Dev. 8: 121-30 (2018)]. To quantify mir-675 and mi405 levels, RNA was extracted using the total RNA protocol for the mirVana miRNA Isolation Kit (Ambion) from HEK293 cells. cDNA was generated using the High-Capacity cDNA Reverse Transcription Kit (Applied Biosystems) using a mix of random hexamer primers and specific reverse primer for pri-mir-675 and mir-675-5p. For mi405, 200 nM of the stem-loop forming primer (5′-[…]-3′) (SEQ ID NO: 144) was also used for the RT step. A custom TaqMan assay (Applied Biosystems) including 1.5 μM of Forward primer (5′-[…]-3′) (SEQ ID NO: 145), 0.7 μM of Reverse primer (5′-GTGCAGGGTCCGAGGT-3′) (SEQ ID NO: 146), and 0.2 μM of mi405 probe (5′-6FAM-ATACGACGTCCAGGAT-3′) (SEQ ID NO: 147) was then run using the CFX Connect Real Time system apparatus (Bio-Rad). RPL13A (Mm02526700_g1; Applied Biosystems) served as the reference gene. The TaqMan gene expression assay consisted of using the TaqMan Gene Expression Master mix and TaqMan probes purchased from ThermoFisher Scientific. 1× of probe was mixed with 1× of the TaqMan Gene Expression Master mix (ThermoFisher Scientific), and with 20 ng of cDNA. The mir-675- and mi405-specific primers and probes were designed to quantify only the mir-675-5p and mi405 mature sequence (see TaqMan Gene Expression Master mix protocol).

mir-675-5p = assay: TaqMan QRT-PCR of mature mir-675-5p from transfected constructs in HEK293 cells
Text: as §1, §2

B1: H1.mir-675: commercially available H1 promoter mir-675 expression plasmid (SBI Biosciences) (nucleic acid)
DNA: GAACGCTGACGTCATCAACCCGCTCCAAGGAATCGCGGGCCCAGTGTCACTAGGCGGGAACACCCAGCGCGCGTGCGCCCTGGCAGGAAGATGGCTGTGAGGGACAGGGGAGTGGCGCCCTGCAATATTTGCATGTCGCTATGTGTTCTGGGAAATCACCATAAACGTGAAATGTCTTTGGATTTGGGAATCTTATAAGTTCTGTATGAGACCACCCCCCAGGGTCTGGTGCGGAGAGGGCCCACAGTGGACTTGGTGACGCTGTATGCCCTCACCGCTCAGCCCCTGGGGAATTCTTCGATTCTGCTTTTTT
CDC6
  repression of CDC6 levels: 38±4%
pri-mir-675
  pri-mir-675 levels compared to U6.mir-675: 320±43%
mir-675-5p; 23 mer mature mir-675-5p, HEK293, 24 h post-transfection
  mir-675-5p levels compared to U6.mir-675: 232±35%
mir-675-5p; HEK293 co-transfected with CMV.DUX4-FL/CMV.eGFP
  mir-675-5p overexpressed levels compared to milacZ sample: ~2000 fold
